# Measured values: PMC4369446 (2015)
# T1: ABC transporter MOAT-C peptide on HLA-A*02:01 (human)
# T1 peptide: RISDIGLADL
# T2: KIAA0735 peptide on HLA-A*02:01 (human)
# T2 peptide: LISGIGIGGA
# T3: Hypothetical 20 kD protein peptide on HLA-A*02:01 (human)
# T3 peptide: RISAIILHPN
# T4: Endothelin-1 receptor peptide on HLA-A*02:01 (human)
# T4 peptide: RVQGIGIPLV
# T5: G-protein coupled receptor RE2 peptide on HLA-A*02:01 (human)
# T5 peptide: RITDLGLSPH
# T6: IGHG1 peptide on HLA-A*02:01 (human)
# T6 peptide: RLSELAIFGV
# T7: Monocarboxylate transporter 8 peptide on HLA-A*02:01 (human)
# T7 peptide: AVAFIGLHTS
# T8: MRP3 peptide on HLA-A*02:01 (human)
# T8 peptide: NVADIGFHDV
# T9: KIAA0935 peptide on HLA-A*02:01 (human)
# T9 peptide: RVTDEAGHPV
# T10: cMOAT2 peptide on HLA-A*02:01 (human)
# T10 peptide: NVADIGLHDV
# T11: SLC1A1 peptide on HLA-A*02:01 (human)
# T11 peptide: VLTGLAIHSI
# T12: P47 peptide on HLA-A*02:01 (human)
# T12 peptide: RISDIRLFIV
# T13: Prostaglandin transporter peptide on HLA-A*02:01 (human)
# T13 peptide: LLAGIGTVPI
# B1: SIG35α / TRBV27 Cl.523 (TCR)
# alpha TRAV12-2 J35 CDR3: CAVSIGFGNVL
# beta TRBV27 TRBJ2-7 CDR3: CASGSYEQYF
# B2: SIG35α / TRBV27 Cl.1599 (TCR)
# alpha TRAV12-2 J35 CDR3: CAVSIGFGNVL
# beta TRBV27 TRBJ1-1 CDR3: CASSFLGAMAEAFF
# B3: SIG35α / TRBV27 Cl.413 (TCR)
# alpha TRAV12-2 J35 CDR3: CAVSIGFGNVL
# beta TRBV27 TRBJ1-4 CDR3: CASSVFGGDMGEKLFF
# B4: SIG35α / TRBV27 Cl.1086 (TCR)
# alpha TRAV12-2 J35 CDR3: CAVSIGFGNVL
# beta TRBV27 TRBJ1-2 CDR3: CASSLHGPGGYTF
# B5: SIG35α / TRBV27 Cl.1593 (TCR)
# alpha TRAV12-2 J35 CDR3: CAVSIGFGNVL
# beta TRBV27 TRBJ1-5 CDR3: CASGNNQPQHF
# B6: SIG35α / TRBV27 Cl.788 (TCR)
# alpha TRAV12-2 J35 CDR3: CAVSIGFGNVL
# beta TRBV27 TRBJ2-7 CDR3: CASGPSYEQYF
# B7: SIG35α / TRBV27 Cl.1574 (TCR)
# alpha TRAV12-2 J35 CDR3: CAVSIGFGNVL
# beta TRBV27 TRBJ1-1 CDR3: CASSPWERINTEAFF
# B8: SIG35α / TRBV27 Cl.1606 (TCR)
# alpha TRAV12-2 J35 CDR3: CAVSIGFGNVL
# beta TRBV27 TRBJ2-7 CDR3: CASSLLGSYEQYF
# B9: SIG35α / TRBV27 Cl.794 (TCR)
# alpha TRAV12-2 J35 CDR3: CAVSIGFGNVL
# beta TRBV27 TRBJ1-2 CDR3: CASSLLGDYGYTF
# B10: SIG35α / TRBV27 Cl.758 (TCR)
# alpha TRAV12-2 J35 CDR3: CAVSIGFGNVL
# beta TRBV27 TRBJ2-2 CDR3: CASSPRLAGDGELFF
# Target: T1, ABC transporter MOAT-C peptide on …
# Test: cytokine release
row,Binder,binding result
1,B1,no recognition
2,B2,no recognition
3,B3,no recognition
4,B4,no recognition
5,B5,no recognition
6,B6,no recognition
7,B7,no recognition
8,B8,no recognition
9,B9,no recognition
10,B10,no recognition

# Target: T2, KIAA0735 peptide on HLA-A*02:01
# Test: cytokine release
row,Binder,binding result
1,B1,recognises
2,B2,recognises
3,B3,no recognition
4,B4,no recognition
5,B5,recognises
6,B6,no recognition
7,B7,recognises
8,B8,recognises
9,B9,recognises
10,B10,no recognition

# Target: T3, Hypothetical 20 kD protein peptide on …
# Test: cytokine release
row,Binder,binding result
1,B1,no recognition
2,B2,no recognition
3,B3,no recognition
4,B4,no recognition
5,B5,no recognition
6,B6,no recognition
7,B7,no recognition
8,B8,no recognition
9,B9,no recognition
10,B10,no recognition

# Target: T4, Endothelin-1 receptor peptide on …
# Test: cytokine release
row,Binder,binding result
1,B1,no recognition
2,B2,no recognition
3,B3,no recognition
4,B4,no recognition
5,B5,no recognition
6,B6,no recognition
7,B7,no recognition
8,B8,no recognition
9,B9,no recognition
10,B10,no recognition

# Target: T5, G-protein coupled receptor RE2 peptide …
# Test: cytokine release
row,Binder,binding result
1,B1,recognises
2,B2,recognises
3,B3,no recognition
4,B4,no recognition
5,B5,recognises
6,B6,recognises
7,B7,recognises
8,B8,recognises
9,B9,recognises
10,B10,recognises

# Target: T6, IGHG1 peptide on HLA-A*02:01
# Test: cytokine release
row,Binder,binding result
1,B1,no recognition
2,B2,no recognition
3,B3,no recognition
4,B4,no recognition
5,B5,no recognition
6,B6,no recognition
7,B7,no recognition
8,B8,no recognition
9,B9,no recognition
10,B10,no recognition

# Target: T7, Monocarboxylate transporter 8 peptide …
# Test: cytokine release
row,Binder,binding result
1,B1,no recognition
2,B2,no recognition
3,B3,no recognition
4,B4,no recognition
5,B5,no recognition
6,B6,no recognition
7,B7,no recognition
8,B8,no recognition
9,B9,no recognition
10,B10,no recognition

# Target: T8, MRP3 peptide on HLA-A*02:01
# Test: cytokine release
row,Binder,binding result
1,B1,no recognition
2,B2,no recognition
3,B3,no recognition
4,B4,no recognition
5,B5,no recognition
6,B6,no recognition
7,B7,no recognition
8,B8,no recognition
9,B9,no recognition
10,B10,no recognition

# Target: T9, KIAA0935 peptide on HLA-A*02:01
# Test: cytokine release
row,Binder,binding result
1,B1,no recognition
2,B2,no recognition
3,B3,no recognition
4,B4,no recognition
5,B5,no recognition
6,B6,no recognition
7,B7,no recognition
8,B8,no recognition
9,B9,no recognition
10,B10,no recognition

# Target: T10, cMOAT2 peptide on HLA-A*02:01
# Test: cytokine release
row,Binder,binding result
1,B1,no recognition
2,B2,no recognition
3,B3,no recognition
4,B4,no recognition
5,B5,no recognition
6,B6,no recognition
7,B7,no recognition
8,B8,no recognition
9,B9,no recognition
10,B10,no recognition

# Target: T11, SLC1A1 peptide on HLA-A*02:01
# Test: cytokine release
row,Binder,binding result
1,B1,no recognition
2,B2,no recognition
3,B3,no recognition
4,B4,no recognition
5,B5,no recognition
6,B6,no recognition
7,B7,recognises
8,B8,recognises
9,B9,no recognition
10,B10,no recognition

# Target: T12, P47 peptide on HLA-A*02:01
# Test: cytokine release
row,Binder,binding result
1,B1,no recognition
2,B2,no recognition
3,B3,no recognition
4,B4,no recognition
5,B5,no recognition
6,B6,no recognition
7,B7,no recognition
8,B8,no recognition
9,B9,no recognition
10,B10,no recognition

# Target: T13, Prostaglandin transporter peptide on …
# Test: cytokine release
row,Binder,binding result
1,B1,recognises
2,B2,recognises
3,B3,recognises
4,B4,recognises
5,B5,recognises
6,B6,recognises
7,B7,recognises
8,B8,recognises
9,B9,recognises
10,B10,recognises
